Values quoted from earlier work as cited in publication PMC5432642.

Target: C3b C3b (Homo sapiens) (UniProt P01024)
Sequence (P01024 566-670): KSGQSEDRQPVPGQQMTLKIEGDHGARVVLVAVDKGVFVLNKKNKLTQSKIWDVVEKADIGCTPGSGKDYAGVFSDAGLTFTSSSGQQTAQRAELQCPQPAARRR

Sequence of FH19–20 FH19-20 (P08603 1107-1231): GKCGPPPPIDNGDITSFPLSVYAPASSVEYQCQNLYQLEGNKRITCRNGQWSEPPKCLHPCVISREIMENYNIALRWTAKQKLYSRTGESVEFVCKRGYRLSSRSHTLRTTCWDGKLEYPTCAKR

For FH19–20 FH19-20 (from UniProt P08603), which Kd is on record?
Its Kd is 5 µM.
